In US20230042095A1 (AstraZeneca / MedImmune, published 2023):
Each block holds one binder with its values, some of them ahead of it.

Tests used:
recombinant human LIFR = target: T1, recombinant human LIFR (human, UniProt P42702 45-833, limits assumed); assay: BLI (Octet RED96), control experiment, h5D8 on anti-human Fc sensor
T1 construct: also called hLIFR; LIF receptor
T1 sequence (looked up): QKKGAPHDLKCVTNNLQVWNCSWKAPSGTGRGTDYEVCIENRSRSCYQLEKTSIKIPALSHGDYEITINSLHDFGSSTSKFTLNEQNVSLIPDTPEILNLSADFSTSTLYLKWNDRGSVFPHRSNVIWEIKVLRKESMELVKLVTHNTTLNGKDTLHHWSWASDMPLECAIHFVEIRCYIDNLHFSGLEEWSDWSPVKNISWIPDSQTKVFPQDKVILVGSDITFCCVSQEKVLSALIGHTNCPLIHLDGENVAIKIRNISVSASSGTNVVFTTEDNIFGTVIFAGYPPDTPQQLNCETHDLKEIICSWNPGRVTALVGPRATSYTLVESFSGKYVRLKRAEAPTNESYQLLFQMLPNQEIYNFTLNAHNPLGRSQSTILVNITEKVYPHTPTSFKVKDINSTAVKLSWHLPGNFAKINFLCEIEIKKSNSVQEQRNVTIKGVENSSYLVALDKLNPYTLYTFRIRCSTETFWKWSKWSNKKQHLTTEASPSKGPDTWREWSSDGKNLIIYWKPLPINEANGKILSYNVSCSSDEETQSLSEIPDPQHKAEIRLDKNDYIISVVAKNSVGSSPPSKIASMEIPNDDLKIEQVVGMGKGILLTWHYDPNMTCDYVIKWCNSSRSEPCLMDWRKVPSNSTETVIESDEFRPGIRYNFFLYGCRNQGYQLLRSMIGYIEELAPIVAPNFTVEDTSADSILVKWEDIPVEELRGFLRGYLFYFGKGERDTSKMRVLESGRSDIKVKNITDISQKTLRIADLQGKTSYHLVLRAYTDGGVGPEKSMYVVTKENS

[1] = target: LIF acting on U251 / U-251 glioma cells (endogenous LIF) (human, UniProt P15018 23-202); assay: cell-based or functional assay
huIL-6 (E. coli) = target: T2, huIL-6 (E. coli) (human, UniProt P05231 30-212, limits assumed); assay: BLI (Octet), h5D8 amine-coupled to AR2G sensor, cytokine as analyte
T2 construct: also called human IL-6
Experimental: Kinetics experiments were then performed with the following Dip and Read steps at 30° C., 1000 rpm: vi) 60 seconds Baseline in 1× kinetics buffer; vii) 180 seconds Association of appropriate serial dilutions of a cytokine in 1× kinetics buffer; viii) 300 seconds Dissociation in 1× kinetics buffer; ix) Three Regeneration/Neutralization cycles alternating between 10 mM glycine pH 2.0 and 1× kinetics buffer respectively (5 seconds in each for 3 cycles). Following regeneration, the biosensors were reused for subsequent binding analyses.

recombinant human gp130 = target: T3, recombinant human gp130 (human, UniProt P40189 23-619, limits assumed); assay: ELISA of mAb/LIF complexes on immobilized gp130, read through the antibody part (B09, anti-rat IgG-peroxidase)
T3 sequence (looked up): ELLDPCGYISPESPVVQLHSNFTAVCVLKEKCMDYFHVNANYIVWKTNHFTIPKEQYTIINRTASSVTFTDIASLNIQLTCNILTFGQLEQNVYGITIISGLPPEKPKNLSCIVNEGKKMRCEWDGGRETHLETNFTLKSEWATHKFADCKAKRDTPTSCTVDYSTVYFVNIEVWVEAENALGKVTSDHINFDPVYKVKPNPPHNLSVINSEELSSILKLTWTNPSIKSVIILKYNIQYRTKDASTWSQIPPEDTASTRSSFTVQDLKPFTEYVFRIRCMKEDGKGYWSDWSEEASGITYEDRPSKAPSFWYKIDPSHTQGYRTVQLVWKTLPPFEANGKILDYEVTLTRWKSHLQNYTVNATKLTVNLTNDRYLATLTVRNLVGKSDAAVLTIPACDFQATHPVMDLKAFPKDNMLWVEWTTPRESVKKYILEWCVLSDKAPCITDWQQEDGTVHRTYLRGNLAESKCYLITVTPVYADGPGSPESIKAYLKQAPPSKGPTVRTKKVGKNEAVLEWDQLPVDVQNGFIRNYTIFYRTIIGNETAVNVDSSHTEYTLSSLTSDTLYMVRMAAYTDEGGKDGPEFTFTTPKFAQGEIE

T2 sequence (P05231 30-212 limits assumed): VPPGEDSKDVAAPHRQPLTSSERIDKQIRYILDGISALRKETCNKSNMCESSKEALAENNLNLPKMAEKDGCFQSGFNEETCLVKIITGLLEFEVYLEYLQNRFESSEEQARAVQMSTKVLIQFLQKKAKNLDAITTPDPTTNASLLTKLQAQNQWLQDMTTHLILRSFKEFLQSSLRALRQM
Sequence of LIF acting on U251 / U-251 glioma cells (endogenous LIF) (P15018 23-202 limits assumed): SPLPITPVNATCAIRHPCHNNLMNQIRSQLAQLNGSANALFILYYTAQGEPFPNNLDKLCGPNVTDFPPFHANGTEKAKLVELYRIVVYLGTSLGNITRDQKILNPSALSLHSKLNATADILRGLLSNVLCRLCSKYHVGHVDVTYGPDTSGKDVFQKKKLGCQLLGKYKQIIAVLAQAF

binding result (recombinant human LIFR): no binding
IC50 for biological inhibition (pSTAT3), serum starved U-251 cells [1]: 490 picomolar
binding result (huIL-6 (E. coli)): no binding
B1: h5D8 (humanized 5D8 comprising H2 and L2) (antibody, human IgG1, kappa, V domains shown)
VH: QVQLQESGGGLVKPGGSLRLSCAASGFTFSHAWMHWVRQAPGKGLEWVGQIKAKSDDYATYYAESVKGRFTISRDDSKNTLYLQMNSLKTEDTAVYYCTCWEWDLDFWGQGTMVTVSS
VL: DIVMTQTPLSSPVTLGQPASISCRSSQSLLDSDGHTYLNWLQQRPGQPPRLLIYSVSNLESGVPDRFSGSGAGTDFTLKISRVEAEDVGVYYCMQATHAPPYTFGQGTKLEIKR
notes: also called H2L2; G (H2L2)

binding result (recombinant human gp130): binds
B2: human LIF (source not stated) (ligand)
chain: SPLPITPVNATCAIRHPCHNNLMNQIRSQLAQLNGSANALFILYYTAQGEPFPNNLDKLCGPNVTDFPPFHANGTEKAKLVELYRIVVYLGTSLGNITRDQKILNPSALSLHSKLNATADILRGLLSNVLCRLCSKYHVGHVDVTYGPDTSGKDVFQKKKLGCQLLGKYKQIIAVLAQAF
notes: also called hLIF; recombinant human LIF protein
